Assay results as given in patent CN114989305A (BEIJING WISDOMAB BIOTECHNOLOGY CO LTD, dated 2022).

target: T1, HER2-His (Homo sapiens (Human), UniProt P04626 23-510); experiment: SPR (Biacore X100), antibody captured by anti-Fc on CM5 chip, HER2-His as analyte, single cycle
T1 construct: Recombinant protein made in HEK293 cells; also called 重组的HER2-His; 重组HER2胞外区D1D2D3部分

Kd [nM] | Binder
5.31 | MAb2 (antibody, V domains shown, The constant region of MAb2 is not known (human IgG1 or an IgG1 variant); also called 对照单克隆抗体; C6G9+L1A7 (inferred)) VH: EVQLVESGGGLVQPGGSLRLSCAASGFTFNDYTMDWVRQAPGKGLEWVADVNPNSGSSIYNERFKGRFTLSVDRSKNTLYLQMNSLRAEDTAVYYCARNLGPSFYFDYWGQGTLVTVSS VL: DIQMTQSPSSLSASVGDRVTITCRASQNINNWLTWYQQKPGKAPKLLIYAASSRQTGVPSRFSGSGSGTDFTLTISSLQPEDFATYYCQQYAKLPVTFGQGTKVEIK
6.79 | BsAb7 (bispecific antibody) chain 1: QVQLVESGGGVVQPGGSLRLSCAASGFVLRVNTVSWYRQAPGKQRELVALITSESNEYYDDSVKGRFTISRDNAKNTIYLHMNSLKPEDTGVYFCNFITTWGQGTQVTVSSGGGGSGGGGSGGGGSQVQLVESGGGVVQPGGSLRLSCAASGFVLRVNTVSWYRQAPGKQRELVALITSESNEYYDDSVKGRFTISRDNAKNTIYLHMNSLKPEDTGVYFCNFITTWGQGTQVTVSSDKTHTCPPCPAPESTRGPSVFLFPPKPKDTLMISRTPEVTCVVVDVSHEDPEVKFNWYVDGVEVHNAKTKPREEQYNSTYRVVSVLTVLHQDWLNGKEYKCKVSNKALPAPIEKTISKAKGQPREPQVCTLPPSRDELTKNQVSLSCAVKGFYPSDIAVEWESNGQPENNYKTTPPVLDSDGSFFLVSKLTVDKSRWQQGNVFSCSVMHEALHNHYTQKSLSLSPGK chain 2: EVQLVESGGGLVQPGRSLRLSCAASGFTFNTYAMNWVRQAPGKGLEWVARIRSKYNNYATYYADSVKDRFTISRDDSKSIAYLQMNSLKTEDTAVYYCVRHGNFGNSYVSWFAYWGQGTLVTVSSASTKGPSVFPLAPSSKSTSGGTAALGCLVKDYFPEPVTVSWNSGALTSGVHTFPAVLQSSGLYSLSSVVTVPSSSLGTQTYICNVNHKPSNTKVDKKVEPKSCDKTHTCPPCPAPESTRGPSVFLFPPKPKDTLMISRTPEVTCVVVDVSHEDPEVKFNWYVDGVEVHNAKTKPREEQYNSTYRVVSVLTVLHQDWLNGKEYKCKVSNKALPAPIEKTISKAKGQPREPQVYTLPPCRDELTKNQVSLWCLVKGFYPSDIAVEWESNGQPENNYKTTPPVLDSDGSFFLYSKLTVDKSRWQQGNVFSCSVMHEALHNHYTQKSLSLSPGK chain 3: QTVVTQEPSLTVSPGGTVTLTCRSSTGAVTTSNYANWVQQKPGQAPRGLIGGTNKRAPGVPARFSGSLLGGKAALTLSGVQPEDEAEYFCALWYSNLWVFGGGTKLTVLGQPKAAPSVTLFPPSSEELQANKATLVCLISDFYPGAVTVAWKADSSPVKAGVETTTPSKQSNNKYAASSYLSLTPEQWKSHRSYSCQVTHEGSTVEKTVAPTECS
9.69 | BsAb8 (bispecific antibody) chain 1: EVQLVESGGGLVQPGGSLRLSCAASGRSFSSFQMGWFRQAPGKEREFVAASGWSGGPTYYWDSVIGRFTISTDNSKNTLYLQMNSLRAEDTAVYYCYEDRVLSGRPVRYWGQGTLVTVSSGGGGSGGGGSGGGGSEVQLVESGGGLVQPGGSLRLSCAASGRSFSSFQMGWFRQAPGKEREFVAASGWSGGPTYYWDSVIGRFTISTDNSKNTLYLQMNSLRAEDTAVYYCYEDRVLSGRPVRYWGQGTLVTVSSDKTHTCPPCPAPESTRGPSVFLFPPKPKDTLMISRTPEVTCVVVDVSHEDPEVKFNWYVDGVEVHNAKTKPREEQYNSTYRVVSVLTVLHQDWLNGKEYKCKVSNKALPAPIEKTISKAKGQPREPQVCTLPPSRDELTKNQVSLSCAVKGFYPSDIAVEWESNGQPENNYKTTPPVLDSDGSFFLVSKLTVDKSRWQQGNVFSCSVMHEALHNHYTQKSLSLSPGK chain 2: EVQLVESGGGLVQPGRSLRLSCAASGFTFNTYAMNWVRQAPGKGLEWVARIRSKYNNYATYYADSVKDRFTISRDDSKSIAYLQMNSLKTEDTAVYYCVRHGNFGNSYVSWFAYWGQGTLVTVSSASTKGPSVFPLAPSSKSTSGGTAALGCLVKDYFPEPVTVSWNSGALTSGVHTFPAVLQSSGLYSLSSVVTVPSSSLGTQTYICNVNHKPSNTKVDKKVEPKSCDKTHTCPPCPAPESTRGPSVFLFPPKPKDTLMISRTPEVTCVVVDVSHEDPEVKFNWYVDGVEVHNAKTKPREEQYNSTYRVVSVLTVLHQDWLNGKEYKCKVSNKALPAPIEKTISKAKGQPREPQVYTLPPCRDELTKNQVSLWCLVKGFYPSDIAVEWESNGQPENNYKTTPPVLDSDGSFFLYSKLTVDKSRWQQGNVFSCSVMHEALHNHYTQKSLSLSPGK chain 3: QTVVTQEPSLTVSPGGTVTLTCRSSTGAVTTSNYANWVQQKPGQAPRGLIGGTNKRAPGVPARFSGSLLGGKAALTLSGVQPEDEAEYFCALWYSNLWVFGGGTKLTVLGQPKAAPSVTLFPPSSEELQANKATLVCLISDFYPGAVTVAWKADSSPVKAGVETTTPSKQSNNKYAASSYLSLTPEQWKSHRSYSCQVTHEGSTVEKTVAPTECS
